The source of these data is patent US9365899.

The test deals with yeast Fab1/PIKfyve kinase (yeast) (UniProt P34756). Nature of the test: cell-based or functional assay.
Sequence of UniProt P34756 (P34756 2-2278 limits assumed): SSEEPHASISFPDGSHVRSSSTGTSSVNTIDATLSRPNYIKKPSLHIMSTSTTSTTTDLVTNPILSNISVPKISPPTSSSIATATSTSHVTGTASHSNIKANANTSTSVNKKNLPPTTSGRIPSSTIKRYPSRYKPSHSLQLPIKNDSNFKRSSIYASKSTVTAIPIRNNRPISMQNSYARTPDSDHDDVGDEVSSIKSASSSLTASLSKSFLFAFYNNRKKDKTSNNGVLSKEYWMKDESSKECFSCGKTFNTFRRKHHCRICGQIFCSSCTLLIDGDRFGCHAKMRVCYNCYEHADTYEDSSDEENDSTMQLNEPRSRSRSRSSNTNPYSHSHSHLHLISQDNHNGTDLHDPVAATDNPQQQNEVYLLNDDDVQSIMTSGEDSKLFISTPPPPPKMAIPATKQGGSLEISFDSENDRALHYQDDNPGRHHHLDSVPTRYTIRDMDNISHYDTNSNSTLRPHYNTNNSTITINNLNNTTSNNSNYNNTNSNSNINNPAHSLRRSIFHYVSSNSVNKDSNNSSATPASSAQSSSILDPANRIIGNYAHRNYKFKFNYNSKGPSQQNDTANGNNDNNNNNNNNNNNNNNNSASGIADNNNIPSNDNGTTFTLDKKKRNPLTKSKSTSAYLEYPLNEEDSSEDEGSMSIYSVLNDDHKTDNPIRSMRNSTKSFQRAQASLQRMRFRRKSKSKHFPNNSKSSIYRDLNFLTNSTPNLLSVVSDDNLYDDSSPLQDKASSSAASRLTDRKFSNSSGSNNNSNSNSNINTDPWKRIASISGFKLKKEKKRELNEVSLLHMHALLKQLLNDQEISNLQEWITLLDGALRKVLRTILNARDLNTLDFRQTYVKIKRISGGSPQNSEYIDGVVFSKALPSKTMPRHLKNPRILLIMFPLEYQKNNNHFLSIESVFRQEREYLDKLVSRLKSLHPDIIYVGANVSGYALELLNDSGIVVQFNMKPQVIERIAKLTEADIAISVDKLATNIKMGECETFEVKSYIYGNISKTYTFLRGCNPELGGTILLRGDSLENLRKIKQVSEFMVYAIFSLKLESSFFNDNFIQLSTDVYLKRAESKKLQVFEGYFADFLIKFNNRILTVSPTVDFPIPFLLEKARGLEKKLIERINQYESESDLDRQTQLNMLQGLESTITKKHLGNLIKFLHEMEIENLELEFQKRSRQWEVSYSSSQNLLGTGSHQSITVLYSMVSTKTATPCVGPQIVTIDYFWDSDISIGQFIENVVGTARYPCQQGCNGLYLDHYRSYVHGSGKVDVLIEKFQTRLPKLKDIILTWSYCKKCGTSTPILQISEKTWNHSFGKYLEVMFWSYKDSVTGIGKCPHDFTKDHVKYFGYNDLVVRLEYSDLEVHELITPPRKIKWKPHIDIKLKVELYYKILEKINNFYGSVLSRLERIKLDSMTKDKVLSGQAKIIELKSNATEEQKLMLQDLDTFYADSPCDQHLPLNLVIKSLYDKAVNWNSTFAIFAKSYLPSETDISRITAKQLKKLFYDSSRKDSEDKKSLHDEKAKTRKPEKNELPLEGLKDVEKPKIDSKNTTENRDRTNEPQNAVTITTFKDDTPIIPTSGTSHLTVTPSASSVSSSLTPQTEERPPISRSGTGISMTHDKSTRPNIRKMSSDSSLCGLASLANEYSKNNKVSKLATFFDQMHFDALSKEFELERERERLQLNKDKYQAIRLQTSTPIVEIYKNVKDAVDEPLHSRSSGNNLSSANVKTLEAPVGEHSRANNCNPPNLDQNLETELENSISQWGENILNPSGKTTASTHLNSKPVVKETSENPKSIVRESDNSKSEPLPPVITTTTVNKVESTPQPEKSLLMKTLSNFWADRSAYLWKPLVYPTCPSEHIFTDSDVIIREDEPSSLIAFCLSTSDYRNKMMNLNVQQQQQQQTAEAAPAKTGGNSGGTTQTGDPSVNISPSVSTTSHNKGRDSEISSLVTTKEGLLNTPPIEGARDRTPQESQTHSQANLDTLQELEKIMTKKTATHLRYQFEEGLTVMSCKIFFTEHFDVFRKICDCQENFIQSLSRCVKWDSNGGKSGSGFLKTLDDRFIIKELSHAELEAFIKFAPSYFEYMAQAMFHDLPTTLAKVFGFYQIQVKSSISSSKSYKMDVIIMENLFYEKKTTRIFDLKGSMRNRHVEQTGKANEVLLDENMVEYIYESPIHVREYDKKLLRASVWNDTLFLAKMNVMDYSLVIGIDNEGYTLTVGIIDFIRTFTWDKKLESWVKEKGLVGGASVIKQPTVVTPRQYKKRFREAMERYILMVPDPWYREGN

Turning to “yeast FIG4 protein with the Ile>Thr mutation corresponding to human I41T (from UniProt P42837 1-879) (enzyme)”, the increase in intracellular PI(3,5)P2 concentration after hyperosmotic shock was determined as 4 fold. Substance “yeast FIG4 protein, wildtype (from UniProt P42837 1-879)” gave an increase in intracellular PI(3,5)P2 concentration after hyperosmotic shock of 10 fold.
